Experimental data as given in patent US20250026782A1, “ACTIVATING APPENDAGES TO INDUCE POLYPHARMACOLOGY IN PEPTIDE HORMONE ANALOGUES, INCLUDING DUAL GLP-1R / GIP AGONISM” (Wisconsin Alumni Research Foundation, priority 2023, published 2025).
“Also recorded” adds a separate entry of the source. No end group written: not given here. B4 T2‑OMe = not defined here

What was measured:
[1] = degraded by peptidases; cited from earlier work
GIP receptor = molecular target: T1, GIP receptor (Homo sapiens, UniProt P48546); experiment: cAMP production assay, activation of GIPR (HEK 293 GS cells stably expressing GIPR); settings: result in words, EC50 values only in figures
T1 sequence (P48546 22-466): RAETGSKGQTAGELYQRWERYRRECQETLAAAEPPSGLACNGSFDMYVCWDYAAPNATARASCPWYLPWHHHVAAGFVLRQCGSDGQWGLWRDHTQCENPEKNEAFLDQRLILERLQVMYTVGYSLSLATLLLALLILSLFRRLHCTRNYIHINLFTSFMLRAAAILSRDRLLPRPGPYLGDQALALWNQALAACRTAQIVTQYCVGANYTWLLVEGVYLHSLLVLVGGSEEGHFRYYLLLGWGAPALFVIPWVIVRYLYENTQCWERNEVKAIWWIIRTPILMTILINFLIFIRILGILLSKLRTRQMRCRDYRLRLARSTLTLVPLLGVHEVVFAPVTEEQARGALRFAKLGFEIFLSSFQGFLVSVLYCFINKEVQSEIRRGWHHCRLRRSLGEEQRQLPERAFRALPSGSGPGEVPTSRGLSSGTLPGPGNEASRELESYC

GLP-1 receptor = GLP-1 receptor (Homo sapiens, UniProt P43220); experiment: cAMP production assay, activation of GLP-1R (GloSensor HEK293 cells); format: cell-based; settings: result in words, EC50 values only in figures
GLP-1 receptor, sequence (P43220 24-463): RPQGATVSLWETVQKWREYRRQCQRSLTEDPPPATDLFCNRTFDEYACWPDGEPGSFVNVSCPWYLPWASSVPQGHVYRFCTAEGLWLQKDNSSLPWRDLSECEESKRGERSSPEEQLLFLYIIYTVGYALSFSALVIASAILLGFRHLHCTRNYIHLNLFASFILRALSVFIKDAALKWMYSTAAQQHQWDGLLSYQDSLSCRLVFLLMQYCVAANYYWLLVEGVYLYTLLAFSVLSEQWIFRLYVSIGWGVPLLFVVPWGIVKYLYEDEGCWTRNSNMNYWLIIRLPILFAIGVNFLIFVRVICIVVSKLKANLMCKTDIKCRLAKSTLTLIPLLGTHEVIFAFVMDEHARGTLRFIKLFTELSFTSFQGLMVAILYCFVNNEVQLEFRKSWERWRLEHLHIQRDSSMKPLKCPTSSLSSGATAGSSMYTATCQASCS

activation of the GIP receptor (agonist activity / potency) (GIP receptor; listed as TZP)	activation of the GLP-1 receptor (agonist activity / potency) (GLP-1 receptor)	activation of the GLP-1 receptor (agonist activity / potency) (GLP-1 receptor; listed as TZP)	Substance	half-life in vivo [1] [min]	activation of the GIP receptor (agonist activity / potency) (GIP receptor)	activation of the GIP receptor (agonist activity / potency) (GIP receptor; listed as GLP-1*)
			GLP-1: glucagon-like peptide-1, native hormone, HAEGTFTSDVSSYLEGQAAKEFIAWLVKGRG	< 2	does not activate the GIP receptor; also recorded: no effect on the GIP receptor; also recorded: does not activate the GIPR	acts as an agonist; also recorded: agonists of both GLP-1 receptor and GIP receptor; also recorded: greater activity than other tested appendages
			GLP-1 16 B4 T2-OMe: GLP-1 with position 16 B4 T2 side chain, OMe variant of bisphenol (HAEGTFTSDK(B4 T2‑OMe)SSYLEGQAAKEFIAWLVKGRG; reading uncertain)		greater activity than other tested appendages	
dual GLP-1R/GIPR	activation of the GLP-1 receptor	dual GLP-1R/GIPR	tirzepatide		activation of the GIP receptor	
	does not activate the GLP-1 receptor		GIP (1-30): amidated truncated form of glucose-dependent insulinotropic polypeptide, YAEGTFISDY SIAMDKIHQQ DEVNWLLAQK-NH2			
